Source: patent US20140120095A1 (Boehringer Ingelheim, published 2014)

Legend:
[1] = target: T1, cynomolgus DLL4 expressed on CHO cells (cynomolgus, UniProt Q9NR61 27-685 (human entry)); test: FACS; summary table, column taken as cDLL4
T1 construct: also called cDLL4; CHO-cDLL4
T1 chain: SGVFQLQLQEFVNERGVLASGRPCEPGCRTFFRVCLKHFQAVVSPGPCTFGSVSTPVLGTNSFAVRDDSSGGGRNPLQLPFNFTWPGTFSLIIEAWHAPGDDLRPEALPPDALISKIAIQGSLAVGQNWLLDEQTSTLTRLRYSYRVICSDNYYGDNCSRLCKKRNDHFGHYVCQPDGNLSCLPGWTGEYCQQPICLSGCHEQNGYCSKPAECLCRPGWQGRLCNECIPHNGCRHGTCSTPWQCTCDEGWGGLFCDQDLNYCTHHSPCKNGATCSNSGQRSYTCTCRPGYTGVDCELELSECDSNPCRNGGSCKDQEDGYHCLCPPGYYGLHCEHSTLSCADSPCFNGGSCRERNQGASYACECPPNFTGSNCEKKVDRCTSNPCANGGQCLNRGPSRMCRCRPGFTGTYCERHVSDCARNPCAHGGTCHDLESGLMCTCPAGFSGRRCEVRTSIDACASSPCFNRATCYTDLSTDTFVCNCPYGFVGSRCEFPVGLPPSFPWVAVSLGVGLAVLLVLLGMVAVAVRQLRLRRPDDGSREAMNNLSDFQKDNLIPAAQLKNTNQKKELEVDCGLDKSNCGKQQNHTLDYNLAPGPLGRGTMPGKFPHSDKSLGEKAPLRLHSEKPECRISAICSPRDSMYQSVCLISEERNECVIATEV

[2] = target: T2, mouse DLL4 expressed on CHO cells (mouse, UniProt Q9JI71 27-686); test: FACS; summary table, column taken as mDLL4
T2 construct: whole, on cells; also called mDLL4; CHO-mDLL4

[3] = target: T1, cynomolgus DLL4 expressed on CHO cells; test: FACS on CHO-cDLL4 cells
[4] = target: T3, human DLL4 expressed on cells (CHO-hDLL4; HEK293-hDLL4) (human, UniProt Q9NR61 27-685); test: cell-based or functional assay
[5] = target: T2, mouse DLL4 expressed on CHO cells; test: competition FMAT, labelled hNotch1-Fc on CHO-mDLL4 cells
[6] = target: T3, human DLL4 expressed on cells …; test: FACS on CHO-hDLL4 cells
[7] = target: T2, mouse DLL4 expressed on CHO cells; test: FACS on CHO-mDLL4 cells
[8] = target: T3, human DLL4 expressed on cells …; test: FACS; summary table, column taken as hDLL4
[9] = target: T4, recombinant human DLL4 (C-terminally His-tagged extracellular domain, R&D Systems) (human, UniProt Q9NR61 25-522, biotinylated in the competition ELISA); test: SPR (Biacore), rhDLL4
T4 construct: also called rhDLL4; hDLL4
Procedure, shortened: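 SPR with DLL4 on the chip; VHH or Fab injected at 10-300 nM for 2 minutes, 20 min dissociation, in HBS-N pH7.4, regenerating with glycine pH1.5 and HCl. KD derived from association and dissociation rate constants by 1:1 Langmuir fit where the curves allowed.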

[10] = target: T3, human DLL4 expressed on cells …; test: competition FMAT, labelled hNotch1-Fc on CHO-hDLL4 cells
[11] = target: T4, recombinant human DLL4 (C-terminally …); test: competition ELISA, biotinylated hDLL4 to coated hNotch1-Fc
[12] = target: T4, recombinant human DLL4 (C-terminally …); test: competition ELISA hDLL4/hNotch1-Fc; summary table
[13] = target: T4, recombinant human DLL4 (C-terminally …); test: SPR (Biacore); summary table
[14] = target: T5, recombinant mouse DLL4 (C-terminally His-tagged extracellular domain, R&D Systems) (mouse, UniProt Q9JI71 27-532); test: SPR (Biacore); summary table
T5 construct: extracellular domain; also called rmDLL4; mDLL4

[15] = target: T5, recombinant mouse DLL4 (C-terminally …); test: SPR (Biacore), rmDLL4
[16] = target: T2, mouse DLL4 expressed on CHO cells; test: competition FMAT CHO-mDLL4; summary table
[17] = target: T3, human DLL4 expressed on cells …; test: competition FMAT CHO-hDLL4; summary table

T2 sequence (Q9JI71 27-686): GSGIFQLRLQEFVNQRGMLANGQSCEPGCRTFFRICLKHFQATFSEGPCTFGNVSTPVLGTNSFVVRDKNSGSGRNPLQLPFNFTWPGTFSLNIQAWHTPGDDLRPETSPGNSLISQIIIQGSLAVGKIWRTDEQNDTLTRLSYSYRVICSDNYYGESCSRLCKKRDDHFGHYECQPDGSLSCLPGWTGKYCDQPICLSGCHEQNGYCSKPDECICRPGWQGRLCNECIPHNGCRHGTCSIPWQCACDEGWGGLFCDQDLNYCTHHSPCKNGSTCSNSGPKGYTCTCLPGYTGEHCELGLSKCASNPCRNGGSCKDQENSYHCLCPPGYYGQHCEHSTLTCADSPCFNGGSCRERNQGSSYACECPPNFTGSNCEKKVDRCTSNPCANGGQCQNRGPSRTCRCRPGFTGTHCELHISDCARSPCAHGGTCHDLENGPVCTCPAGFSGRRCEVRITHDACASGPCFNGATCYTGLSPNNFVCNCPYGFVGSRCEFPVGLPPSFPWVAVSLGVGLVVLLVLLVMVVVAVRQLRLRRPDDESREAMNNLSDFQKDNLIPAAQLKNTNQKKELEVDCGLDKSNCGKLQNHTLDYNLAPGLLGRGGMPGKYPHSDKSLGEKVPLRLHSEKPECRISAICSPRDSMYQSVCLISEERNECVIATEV
T5 sequence (Q9JI71 27-532): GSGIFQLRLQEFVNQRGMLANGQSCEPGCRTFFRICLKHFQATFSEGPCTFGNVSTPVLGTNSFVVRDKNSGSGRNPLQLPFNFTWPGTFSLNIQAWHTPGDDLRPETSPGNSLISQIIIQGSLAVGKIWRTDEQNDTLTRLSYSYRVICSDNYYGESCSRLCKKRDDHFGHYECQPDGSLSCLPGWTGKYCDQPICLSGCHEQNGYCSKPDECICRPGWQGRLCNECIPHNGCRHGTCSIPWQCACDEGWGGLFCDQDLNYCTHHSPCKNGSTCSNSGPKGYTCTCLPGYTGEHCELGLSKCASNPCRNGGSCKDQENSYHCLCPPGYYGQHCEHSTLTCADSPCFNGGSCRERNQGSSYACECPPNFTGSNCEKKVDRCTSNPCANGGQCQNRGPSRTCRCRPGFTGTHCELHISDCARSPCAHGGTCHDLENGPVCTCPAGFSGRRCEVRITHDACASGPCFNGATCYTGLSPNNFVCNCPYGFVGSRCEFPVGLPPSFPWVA

EC50 [1]: 3.5 nM
EC50 [2]: 8.3 nM
EC50 [3]: 3.5 nM
IC50, DLL4-mediated reporter assay [4]: 226 nM
IC50 [5]: 31.2 nM
EC50 [6]: 10.9 nM
EC50 [7]: 8.3 nM
EC50 [8]: 10.9 nM
Kd [9]: 0.6 nM
koff [9]: 0.00039 s⁻¹
kon [9]: 620000 M⁻¹ s⁻¹
IC50 [10]: 8 nM
IC50 [11]: 1.4 nM
IC50 [12]: 1.4 nM
Kd [13]: 0.6 nM
Kd [14]: 2.6 nM
Kd [15]: 2.6 nM
koff [15]: 0.0013 s⁻¹
kon [15]: 500000 M⁻¹ s⁻¹
IC50 [16]: 31.2 nM
IC50 [17]: 8 nM
B1: DLLBII136C07 (VHH, not shown: small tags and cut ends)
VHH: EVQLVESGGGLVQPGGSLRLSCAASGFTFGSYDMSWVRRSPGKGPEWVSSINSGGGSTYYADYVKGRFTISRDNAKNTLYLQMNSLKPEDTAVYYCAADRYIWARQGEYWGAYEYDYWGQGTQVTVSS
